Assay results reported in patent US11840574B2, “Anti-DR5 antibody and use thereof” (DONG-A ST CO., LTD., priority 2017, dated 2023).

B1: DA24: humanized or deimmunized variant of parental clone D0; CDRs SEQ ID NO 1, 2, 7 / 4, 10, 13 (antibody, V domains shown)
VH: AVTLDESGGGLQTPGGGLSLVCKGSGFTFSSFNMLWVRQAPGKGLEWVAGIGKSDRYTGYGSAVKGRATISRDDGQSTVRLQLNNLRAEDTGTYYCVKDAGSGCGSGGWTGACIDTWGHGTEVIVSS
VL: LTQPSSVSANLGGTVEITCSGGDSYAGSYYYGWYQQKAPGSAPVTVIYNNNNRPSNIPSRFSGSTSGSTATLTITGVQAEDEATYYCGSRDSSYVGIFGAGTTLTVL
B2: DA25: humanized or deimmunized variant of parental clone D0; CDRs SEQ ID NO 1, 2, 7 / 4, 10, 13 (antibody, V domains shown)
VH: AVTLDESGGGLQTPGGGLSLVCKGSGFTFSSFNMLWVRQAPGKGLEWVAGIGKSDRYTGYGSAVKGRATISRDDGQSTVYLQMNSLRAEDTGTYYCVKDAGSGCGSGGWTGACIDTWGHGTEVIVSS
VL: LTQPSSVSANLGGTVEITCSGGDSYAGSYYYGWYQQKAPGSAPVTVIYNNNNRPSNIPSRFSGSTSGSTATLTITGVQAEDEAVYFCGSRDSSYVGIFGAGTTLTVL
B3: DA26: humanized or deimmunized variant of parental clone D0; CDRs SEQ ID NO 1, 2, 7 / 4, 10, 13 (antibody, V domains shown)
VH: AVTLDESGGGLQTPGGGLSLVCKGSGFTFSSFNMLWVRQAPGKGLEWVAGIGKSDRYTGYGSAVKGRATISRDDGQSTVYLQMNSLRAEDTGTYYCVKDAGSGCGSGGWTGACIDTWGHGTEVIVSS
VL: LTQPSSVSANLGGTVEITCSGGDSYAGSYYYGWYQQKAPGSAPVTVIYNNNNRPSNIPSRFSGSTSGSTATLTITGVQAEDEATYYCGSRDSSYVGIFGAGTTLTVL
B4: DA27: humanized or deimmunized variant of parental clone D0; CDRs SEQ ID NO 1, 2, 7 / 4, 10, 13 (antibody, V domains shown)
VH: AVTLDESGGGLQTPGGGLSLVCKGSGFTFSSFNMLWVRQAPGKGLEWVAGIGKSDRYTGYGSAVKGRATISRDDGQSTVRLQLNNLRAEDTGTYYCVKDAGSGCGSGGWTGACIDTWGHGTEVIVSS
VL: LTQPSSVSANLGGTVEITCSGGDSYAGSYYYGWYQQKAPGSAPVTVIYNNNNRPSNIPSRFSGSTSGSTATLTITGVQAEDEATYFCGSRDSSYVGIFGAGTTLTVL
B5: DA12: humanized or deimmunized variant of parental clone D0; CDRs SEQ ID NO 1, 2, 7 / 4, 11, 13 (antibody, V domains shown)
VH: EVQLVESGGGLVQPGGSLRLSCAASGFTFSSFNMLWVRQAPGKGLEWVAGIGKSDRYTGYGSAVKGRFTISRDTSKNTAYLQMNSLRAEDTAVYYCSRDAGSGCGSGGWTGACIDTWGQGTLVTVSS
VL: DIQMTQSPSSLSASVGDRVTITCSGGDSYAGSYYYGWYQQKPGKAPKTLIYNNNNLMPGVPSRFSGSRSGTDFTLTISSLQPEDFATYYCGSRDSSYVGIFGQGTKVEIK
B6: DA17: humanized or deimmunized variant of parental clone D0; CDRs SEQ ID NO 1, 2, 7 / 4, 12, 13 (antibody, V domains shown)
VH: EVQLVESGGGLVQPGGSLRLSCAASGFTFSSFNMLWVRQAPGKGLEWVAGIGKSDRYTGYGSAVKGRFTISRDDSKSTVYLQMNSLRAEDTAVYYCVRDAGSGCGSGGWTGACIDTWGQGTLVTVSS
VL: DIQMTQSPSSLSASVGDRVTITCSGGDSYAGSYYYGWYQQKPGKAPKTLIYNNNNKAKGVPSRFSGSRSGTDFTLTISSLQPEDFATYYCGSRDSSYVGIFGQGTKVEIK
B7: DA16: humanized or deimmunized variant of parental clone D0; CDRs SEQ ID NO 1, 2, 7 / 4, 10, 16 (antibody, V domains shown)
VH: EVQLVESGGGLVQPGGSLRLSCAASGFTFSSFNMLWVRQAPGKGLEWVAGIGKSDRYTGYGSAVKGRFTISRDTSKNTAYLQMNSLRAEDTAVYYCSRDAGSGCGSGGWTGACIDTWGQGTLVTVSS
VL: DIQMTQSPSSLSASVGDRVTITCSGGDSYAGSYYYGWYQQKPGKAPKTLIYNNNNRPSGVPSRFSGSRSGTDFTLTISSLQPEDFATYYCGSRDSSGAGGFGQGTKVEIK
B8: DA18: humanized or deimmunized variant of parental clone D0; CDRs SEQ ID NO 1, 2, 7 / 4, 10, 15 (antibody, V domains shown)
VH: EVQLVESGGGLVQPGGSLRLSCAASGFTFSSFNMLWVRQAPGKGLEWVAGIGKSDRYTGYGSAVKGRFTISRDDSKSTVYLQMNSLRAEDTAVYYCVRDAGSGCGSGGWTGACIDTWGQGTLVTVSS
VL: DIQMTQSPSSLSASVGDRVTITCSGGDSYAGSYYYGWYQQKPGKAPKTLIYNNNNRPSGVPSRFSGSRSGTDFTLTISSLQPEDFATYYCGSRDSDGGGRFGQGTKVEIK
B9: DA13: humanized or deimmunized variant of parental clone D0; CDRs SEQ ID NO 1, 2, 7 / 4, 10, 14 (antibody, V domains shown)
VH: EVQLVESGGGLVQPGGSLRLSCAASGFTFSSFNMLWVRQAPGKGLEWVAGIGKSDRYTGYGSAVKGRFTISRDTSKNTAYLQMNSLRAEDTAVYYCSRDAGSGCGSGGWTGACIDTWGQGTLVTVSS
VL: DIQMTQSPSSLSASVGDRVTITCSGGDSYAGSYYYGWYQQKPGKAPKTLIYNNNNRPSGVPSRFSGSRSGTDFTLTISSLQPEDFATYYCGSRDSAGMGAFGQGTKVEIK
B10: DA15: humanized or deimmunized variant of parental clone D0; CDRs SEQ ID NO 1, 2, 7 / 4, 10, 15 (antibody, V domains shown)
VH: EVQLVESGGGLVQPGGSLRLSCAASGFTFSSFNMLWVRQAPGKGLEWVAGIGKSDRYTGYGSAVKGRFTISRDTSKNTAYLQMNSLRAEDTAVYYCSRDAGSGCGSGGWTGACIDTWGQGTLVTVSS
VL: DIQMTQSPSSLSASVGDRVTITCSGGDSYAGSYYYGWYQQKPGKAPKTLIYNNNNRPSGVPSRFSGSRSGTDFTLTISSLQPEDFATYYCGSRDSDGGGRFGQGTKVEIK
B11: DA14: humanized or deimmunized variant of parental clone D0; CDRs SEQ ID NO 1, 2, 7 / 4, 12, 13 (antibody, V domains shown)
VH: EVQLVESGGGLVQPGGSLRLSCAASGFTFSSFNMLWVRQAPGKGLEWVAGIGKSDRYTGYGSAVKGRFTISRDTSKNTAYLQMNSLRAEDTAVYYCSRDAGSGCGSGGWTGACIDTWGQGTLVTVSS
VL: DIQMTQSPSSLSASVGDRVTITCSGGDSYAGSYYYGWYQQKPGKAPKTLIYNNNNKAKGVPSRFSGSRSGTDFTLTISSLQPEDFATYYCGSRDSSYVGIFGQGTKVEIK

Molecular target: Human DR5 (Homo sapiens, UniProt O14763)
Test: Binding affinity of antibody to human DR5 (BIAcore, CM5 chip)
Settings: for Ka(1/Ms): association rate, Human DR5, 1:1 Langmuir binding model; for Kd: equilibrium dissociation constant, Human DR5
Procedure: In order to measure affinity, human DR5 was coupled to carboxylated dextran biosensor chips (CM5, GE) according to the manufacturer's instruction. Association and dissociation rates were assessed by injecting IgG proteins that were 2-fold serially diluted to 5 nM, 2.5 nM, 1.25 nM, 0.625 nM, 0.313 nM, and 0.156 nM.
Association and dissociation rates were depicted in association and dissociation sensorgrams and calculated using a simple 1:1 Langmuir binding model (BIAcore X100 Evaluation Software, ver. 2.0). The equilibrium dissociation constants (KD), which is the ratio of dissociation constant (Kd) to association constant (Ka), were confirmed to be in the sub-nanomolar range. Measurements of the binding of antibody D0 and DA1 to DA35 of the present disclosure to DR5 are given in Table 11 below (antibody names are given as the names of the clones from which the antibodies were derived). A representative sensorgram for D0 is depicted in FIG. 1.

| Molecule | Ka(1/Ms) | Kd |
| --- | --- | --- |
| B1 | 1.20 × 10^06 1/Ms | 1.02 pM |
| B2 | 1.05 × 10^06 1/Ms | 1.62 pM |
| B3 | 1.09 × 10^06 1/Ms | 1.01 pM |
| B4 | 1.17 × 10^06 1/Ms | 1.92 pM |
| B5 | 2.37 × 10^06 1/Ms | 12.7 pM |
| B6 | 2.54 × 10^06 1/Ms | 23.5 pM |
| B7 | 2.11 × 10^06 1/Ms | 26.1 pM |
| B8 | 1.33 × 10^06 1/Ms | 27.7 pM |
| B9 | 2.62 × 10^06 1/Ms | 11.2 pM |
| B10 | 2.56 × 10^06 1/Ms | 1.09 pM |
| B11 | 4.27 × 10^06 1/Ms | 23.5 pM |
